We go through 4 molecules from paper PMC5898484, “Two Differential Binding Mechanisms of FG-Nucleoporins and Nuclear Transport Receptors” (Cell Reports, 2018).

Assay [1] deals with FG-Nup153^Glc labelled for stopped-flow kinetics. Briefly: stopped-flow fluorescence anisotropy; association under pseudo-first order conditions (>10-fold excess of the NTR); kobs from single exponential fits, kon from the slope of kobs versus NTR concentration; excitation 532 nm.
For assay [2], the target named is FG-Nup153 labelled for stopped-flow kinetics. Briefly: stopped-flow fluorescence, dissociation; preformed FG-Nup⋅NTR complex rapidly mixed with 100× (2 μM) excess of unlabeled FG-Nup.
Assay [3] has as its target FG-Nup214 labelled for stopped-flow anisotropy. As to the kind of experiment: stopped-flow fluorescence anisotropy; association under pseudo-first order conditions (>10-fold excess of the NTR); kobs from single exponential fits, kon from the slope of kobs versus NTR concentration; excitation 532 nm.
Assay [4] concerns the target FG-Nup214^Glc labelled for stopped-flow kinetics. The assay is described as above.
The target of assay [5] is FG-Nup214^117 proline triple mutant A1927P/A2017P/A2019P. Briefly: single-molecule FRET (smFRET) titration; fractions of bound (low E_FRET) and unbound (high E_FRET) FG-Nup214^117 as a function of CRM1 concentration, with 1 μM RanGTP.
Assay [6] deals with FG-Nup214^117 (117-aa fragment of FG-Nup214), wild type, labelled for FRET. Described as above.
Assay [7] has as its target FG-Nup214^117 proline double mutant A1927P/A2017P. The assay is described as above.
Assay [8] addresses FG-Nup214 labelled for stopped-flow anisotropy. Briefly: stopped-flow fluorescence, dissociation; preformed FG-Nup⋅NTR complex rapidly mixed with 100× (2 μM) excess of unlabeled FG-Nup.
Assay [9] has as its target T1, CRM1 (export receptor, exportin) (UniProt O14980 1-1071).
T1 construct: exportin CRM1; Construct details in the Supplemental Experimental Procedures; also called exportin CRM1
Briefly: stopped-flow fluorescence (donor signal of a FRET-labelled sample); association; donor signal change of FRET-labelled FG-Nup214 instead of anisotropy. Particulars: both partners purified.

T1 sequence (O14980 whole entry): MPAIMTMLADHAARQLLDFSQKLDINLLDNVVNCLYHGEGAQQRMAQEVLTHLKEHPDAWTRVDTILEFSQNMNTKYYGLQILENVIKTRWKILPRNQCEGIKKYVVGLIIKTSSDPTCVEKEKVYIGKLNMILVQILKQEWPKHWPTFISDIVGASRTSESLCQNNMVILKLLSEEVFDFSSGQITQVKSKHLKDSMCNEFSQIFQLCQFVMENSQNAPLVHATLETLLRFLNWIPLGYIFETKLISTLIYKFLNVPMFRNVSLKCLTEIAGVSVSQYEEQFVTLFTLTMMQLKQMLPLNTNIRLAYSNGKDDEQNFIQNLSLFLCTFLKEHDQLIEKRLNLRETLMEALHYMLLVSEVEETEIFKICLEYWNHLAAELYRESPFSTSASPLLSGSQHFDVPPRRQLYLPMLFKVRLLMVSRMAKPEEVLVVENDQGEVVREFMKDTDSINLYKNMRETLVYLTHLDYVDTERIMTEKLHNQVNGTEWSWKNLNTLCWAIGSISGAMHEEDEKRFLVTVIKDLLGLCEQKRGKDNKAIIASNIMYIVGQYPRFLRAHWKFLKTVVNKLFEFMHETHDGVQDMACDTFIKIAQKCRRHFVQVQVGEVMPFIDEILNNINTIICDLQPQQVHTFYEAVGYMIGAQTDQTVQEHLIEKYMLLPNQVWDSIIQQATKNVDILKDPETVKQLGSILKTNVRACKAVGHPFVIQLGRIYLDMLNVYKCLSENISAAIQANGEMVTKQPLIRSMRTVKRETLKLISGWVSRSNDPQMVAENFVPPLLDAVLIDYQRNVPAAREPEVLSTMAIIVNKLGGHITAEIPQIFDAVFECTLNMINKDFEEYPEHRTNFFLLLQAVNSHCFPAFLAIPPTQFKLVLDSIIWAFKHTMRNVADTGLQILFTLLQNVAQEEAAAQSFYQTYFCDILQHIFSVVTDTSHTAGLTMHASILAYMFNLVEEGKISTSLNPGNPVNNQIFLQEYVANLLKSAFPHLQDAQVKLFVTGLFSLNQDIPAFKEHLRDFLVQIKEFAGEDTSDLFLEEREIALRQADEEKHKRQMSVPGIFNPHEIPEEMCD

In assay [1], “Importinβ (import receptor) (from UniProt Q14974 1-876)” came in with a kon of 8.5e+08 M⁻¹ s⁻¹. In [2], this molecule came in with a complex half-life of 0.08 s and a koff of 8.7 s⁻¹.

As to “CRM1 (export receptor, exportin) (from UniProt O14980 1-1071)”, the values for the kon in [3] and in assay [4] were 4e+07 M⁻¹ s⁻¹ and 3.8e+07 M⁻¹ s⁻¹, respectively.

With “CRM1⋅RanGTP complex (from UniProt O14980 1-1071; P62826 1-216)”, the Kd was determined as 222 nM in assay [5], 35 nM in [6] and 53 nM in [7]. For the same molecule, the kon in assay [3] was 2.1e+07 M⁻¹ s⁻¹; in [4], 1.3e+07 M⁻¹ s⁻¹. Also, the complex half-life in assay [8] came out at 5 s. In assay [8], this molecule showed an off-rate (koff) of 0.14 s⁻¹.

B1: FG-Nup214 (FG domain of Nup214), double-labelled for FRET (domain or fragment)
chain: ATTTSVAPPAATSTSSTAVFGSLPVTSAGSSGVISFGGTSLSAGKTSFSFGSQQTNSTVPPSAPPPTTAATPLPTSFPTLSFGSLLSSATTPSLPMSAGRSTEEATSSALPEKPGDSEVSASAASLLEEQQSAQLPQAPPQTSDSVKKEPVLAQPAVSNSGTAASSTSLVALSAEATPATTGVPDARTEAVPPASSFSVPGQTAVTAAAISSAGPVAVETSSTPIASSTTSIVAPGPSAEAAAFGTVTSGSSVFAQPPAASSSSAFNQLTNNTATAPSATPVFGQVAASTAPSLFGQQTGSTASTAAATPQVSSSGFSSPAFGTTAPGVFGQTTFGQASVFGQSASSAASVFSFSQPGFSSVPAFGQPASSTPTSTSGSVFGAASSTSSSSSFSFGQSSPNTGGGLFGQSNAPAFGQSPGFGQGGSVFGGTSAATTTAATSGFSFCQASGFGSSNTGSVFGQAASTGGIVFGQQSSSSSGSVFGSGNTGRGGGFFSGLGGKPSQDAANKNPFSCASGGFGSTATSNTSNLFGNSGAKTFGGFASSSFGEQKPTGTFSSGGGSVASQGFGFSSPNKTGGFGAAPVFGSPPTFGGSPGFGGVPAFGSAPAFTSPLGSTGGKVFGEGTAAASAGGFGFGSSSNTTSFGTLASQNAPTFGSLSQQTSGFGTQSSGFSGFGSGTGGFSFGSNNSSVQGFGGWRS
modifications: Alexa594-maleimide (acceptor) on the Cys introduced at 1,905; p-acetylphenylalanine (AcF) at 2,043 labelled with Alexa488-hydroxylamine (donor)
With B1, the kon in assay [9] amounted to 3e+07 M⁻¹ s⁻¹.
